Test: label from the status in PepcDB records

Sequence	protein production
MSMLKKTKEFFGLAPYEAEHEDAYYADEPRYEGTAAYAPEYRERDYGYAPEAPAPVAPSPAPRSYQSTIVPVELHSFEDAQVIGGAFRDGDAVVFDMSLLSREEARRIVDFAAGLCFALRGKMQKIDSVTFAVVPELSNISTSELERAARIRLEHHHHHH	not failed
MEEKQERYSISEKTYQEFIDHTRVLALEERGIVQCGIATCRDFFSVYRKNQKKHMLLYTVRGKGWLESGACRYELEPGSLVVVPAGIENGFGMEDETWQIAWVFLSQHKEWSMVGENISYQLTPAPEVMYSCIQTLLRSINLSIDYGSAVGAHSVAQLELMLNMPSSESVSRNQLKLRRVFDLVQRQLHKDWSVEQLAALYPCSEPHLHRLTQQQFGRSPMAHLMRMRMEYAARLLRSTEWPIQHIGEIVGYPTSANFSTRFKAWSSMTPREFRQNGRIERDPEK	failed
NVYDLANELERAVRALPEYQAVLTAKSAIESDADAQVLWQDFLATQSKVQEMMQSGQMPSQEEQDEMSKLGEKIESNDLLKVYFDQQQRLSVYMSDIEKIVFAPMQDL	not failed
MKFRIDTFTLLLLGAIVLASFLPVTGQAAEALGTAGTIAVALLFFFHGAALSRQQIIDGATHWRLHILITALTFVFFPLAVLPVNELNTIAPEWMPKDLGLGFLYLGVLPSAVSSSIAYTAMARGNVPAAICSAAASNVFGMMLTPFLLLLLVSTSGAGEFSVAEALKDIVLQLLLPFAVGHALRPWLGGYLSRNESLMARYDQCVIWIIVYSAFSHSVVSGLWQNLPVQAIVLAILICFGLLGLFMLIARLMVRKLGFSLEDEAAVVFCGSKKSLASGLPMAKVLFSGHPGFGMIVLPIMCYNQIQVIVGAILAQKYREKIQQAKSAPAHASENGCQNR	failed
MKKKLVIILSIICIIAGGYFTMEYLKHKEKEEFFWKTQETRVEKYIHYNVKDVKSITFIEHKISPMGIPSIEGYINDDKDLWFDASISTTENFEDKFSRSGELGKLIKDPEKSVSEIEKEEKEKKKELEHHHHHH	not failed
MGDVVEMTSELGFKYSILASGSTGNSFYLETPEKKILVDAGLSGKKITSLLAEIDRDPSDLDAILVTHEHKDHIHGVGVLARKYGMDIYANEKTWQIMDSKNMLGKVDNSQKHIFSRGKLLTFGDIDIESFGVSHDAINPQFYRFMKDGKSFVMLTDTGYVSDRMAGLIENADGYLIESNHDIEILRAGSYPWSTKQRILSDQGHLCNEDGADAMIRTIGNKTKKIYLGHLSKENNIKELAYMTMENQLARADFGVGTDFKIFVTSPDTATPLTDILEHHHHHH	not failed
MGSTTGSMLTAISDTHGTDNHRLTGRTLDAVREADHVLHAGDFMTEQVLDAIDAESDELTGVVGNNDRPAVRARLSDVATVSWEELTIVVVHGHEHTETALGMLARQENADIVVVGHSHKPVLTDFGGWTLVNPGSYADPRRYQPAHAELDVMAGDVRVRLRSPDGTPISTTIVERLEHHHHHH	failed
MKKFLAIITLCLLFFSFTIGCERASLNRIGKDVYYMQIKGEGTIEKVDGRNLRNYTLPAYDEDGVKKQITFRSTKKENDHKLNKYAFLRLYVDQDDNSKNEISSIEVKSYEEIQKADLPEKVKDKFTIKLEHHHHHH	not failed
MRVHASSPDNKLQVFAIAGTKAILLAMNMDDSLLQGFHGFAFRRRVANGQWEWLTGLKVFVDVFPEGGPVIKKGKVGRFPTNEHPIQSFLWSDYRASPGTKYEFEISAMFGPIAKLEAYYAATLAITTEQEDDGKHGIWFNLGAIASQAFAEKFGNKPLSDADYNDPDNEEVAFLSRGLLEACIEFIRETPAGDALRIVAYEFTFKRILLELKAALERGVDVRIVYHATTANEKAIADAKLPENSKGVQILFKRTRPQTPHNKFIVRLKKGKTPVSVWTGSTNFTPSGFLGQTNVGHKVTDGDIAKIYLQLWEGLKADPDDFDATQAAMALTPNPANVVGTGTTLVFSPRPSPKMLDWYGHRAADAVNAVMFTAAFKVDERILSALADTDTSMRFILLEQPPSAEVQAARRANPADLELSYGAILGKTKMLTEERTGRDATGKKVTKIVPIPNFKIEKWFLKEELERQSGDGFVFYVHTKFLLVDPFSDDPLVCTGSANFSGASLTSNDENMLLIRGDTRVADIYLTEYDRVFRHFYSRDVINDIAKKGGPVNVGKLDPTDKWWQPYYDAKLAKSHKRRMFFEDPKKHWIESATQDGNVFAKEKPLKKPQ	failed
EPAEIKIIREAYKKAFLFVNKGLNTDELGQKEEAKNYYKQGIGHLLRGISISSKESEHTGPGWESARQMQQKMKETLQNVRTRLEILEKGLATSLQNDLQEVP	not failed

— a protein production outcome set (Wang et al. 2014)
